Biological target: the molecule itself
Experiment: cross-linking; 2 mM BS3 (membrane-impermeable) on starved HEK 293 T cells transfected with 1 µg DNA, room temperature, no ligand; Western blot with anti-FGFR3; cross-linked fraction SD/(SM+SD) with the 130 kDa monomer band

B1: FGFR3 carrying the A391E mutation (Crouzon syndrome with Acanthosis Nigricans) (receptor)
chain: ESLGTEQRVVGRAAEVPGPEPGQQEQLVFGSGDAVELSCPPPGGGPMGPTVWVKDGTGLVPSERVLVGPQRLQVLNASHEDSGAYSCRQRLTQRVLCHFSVRVTDAPSSGDDEDGEDEAEDTGVDTGAPYWTRPERMDKKLLAVPAANTVRFRCPAAGNPTPSISWLKNGREFRGEHRIGGIKLRHQQWSLVMESVVPSDRGNYTCVVENKFGSIRQTYTLDVLERSPHRPILQAGLPANQTAVLGSDVEFHCKVYSDAQPHIQWLKHVEVNGSKVGPDGTPYVTVLKTAGANTTDKELEVLSLHNVTFEDAGEYTCLAGNSIGFSHHSAWLVVLPAEEELVEADEAGSVYAGILSYGVGFFLFILVVEAVTLCRLRSPPKKGLGSPTVHKISRFPLKRQVSLESNASMSSNTPLVRIARLSSGEGPTLANVSELELPADPKWELSRARLTLGKPLGEGCFGQVVMAEAIGIDKDRAAKPVTVAVKMLKDDATDKDLSDLVSEMEMMKMIGKHKNIINLLGACTQGGPLYVLVEYAAKGNLREFLRARRPPGLDYSFDTCKPPEEQLTFKDLVSCAYQVARGMEYLASQKCIHRDLAARNVLVTEDNVMKIADFGLARDVHNLDYYKKTTNGRLPVKWMAPEALFDRVYTHQSDVWSFGVLLWEIFTLGGSPYPGIPVEELFKLLKEGHRMDKPANCTHDLYMIMRECWHAAPSQRPTFKQLVEDLDRVLTVTSTDEYLDLSAPFEQYSPGGQDTPSSSSSGDDSVFAHDLLPPAPPSSGGSRT
notes: fibroblast growth factor receptor 3, human, with the pathogenic transmembrane-domain mutation A391E; full-length receptor; the mature 130 kDa form in the plasma membrane was quantified; Made from the FGFR3/WT plasmid by site-directed mutagenesis; the mutation occurs in patients; also called FGFR3/A391E; A391E mutant; source: HEK 293 T, transiently transfected (pcDNA 3.1+, Fugene 6), on cells
  stoichiometry N: 2
